In this test the target is T1, MBP-IGKVDJ3-6×His (MBP fusion human antibody kappa light chain variable region protein, family 3 consensus).
T1 construct: also called MBP-VK3
Nature of the test: SPR (legend of Fig. 12B), control MBP.

T1 sequence (chain, as listed by the source): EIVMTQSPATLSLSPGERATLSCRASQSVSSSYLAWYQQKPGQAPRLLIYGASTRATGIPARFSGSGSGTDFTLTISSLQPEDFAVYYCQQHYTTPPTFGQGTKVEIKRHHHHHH

As for WHWNWMRLDPMT [code 15 peptide], the binding result is on record as “binds”.

(Values after patent WO2013125221A1 (dated 2013).)
